{
  "source": "paper PMC4384708",
  "about": "“Molecular imaging of angiogenesis after myocardial infarction by ^111In-DTPA-cNGR and ^99mTc-sestamibi dual-isotope myocardial SPECT” (EJNMMI Research, 2015)",
  "key": {"in vivo [1]": {"assay": "in vivo", "conditions": "2 h p.i., gamma counting, mean ± SEM; for urinary excretion (urine radioactivity): i.v.; for tissue uptake at 2 h: male, Swiss, mouse, iv, total radioactivity", "experimental": "In order to quantify the absolute uptake of ^111In-DTPA-cNGR in the different heart pieces, gamma counting was performed using an automated NaI(Tl) gamma counter (Wallac Wizard, Turku, Finland). Additionally, we dissected the vital organs of the mice to study overall biodistribution. The uptake of ^111In-DTPA-cNGR was determined 2 h post-injection (p.i.) for both MI (n ≥ 5) and control animals (n ≥ 4). Data were expressed as percentage of injected dose per gram tissue (%ID/g). Urinal excretion was expressed as %ID."}, "[2]": {"assay": "Matrigel plug model, ex vivo SPECT of explanted Matrigels", "assay_type": "in vivo", "conditions": "male, Swiss, mouse, total radioactivity, six mice, mean ± SEM", "experimental": "(§1) MI was induced in 10- to 12-week old male Swiss mice by ligation of the left anterior descending coronary artery (LAD) (n = 7), as previously described. The angiogenesis imaging protocol was performed 7 days after the LAD ligation. A group of non-operated male Swiss mice (n = 5) was used as control. A variable number of animals were available for analysis per experiment. For SPECT scans, seven MI mice and five control mice were used while for biodistribution purposes ≥5 MI mice and ≥4 control mice were used. Furthermore, a group of six 10- to 12-week old male Swiss mice were bilaterally, subcutaneously implanted in the flanks with Matrigel (Table 1). […] All animals were held under the guidelines of the animal care facility (Maastricht University). All animal experiments were approved by the Committee for Animal Welfare of Maastricht University.\n(§2) The PMOD 2.95 cardiac tool PCARD (PMOD Technologies, Zürich, Switzerland) was used to segment the heart in the 17-segment model according to the American Heart Association (AHA) guidelines. For both the ^99mTc-sestamibi and ^111In-DTPA-cNGR images, the uptake was measured for each segment and expressed as mean standardised uptake value (SUVmean) using equation (b).b SUV=SPECTcountspervoxel×CF/VvMBq/ml×Bodyweightg/InjecteddoseMBq"}, "in vivo [3]": {"assay": "in vivo", "conditions": "male, Swiss, mouse, heart, iv, mean ± S.E.M.", "experimental": "as §1\nMice were anesthetised with isoflurane (induction 2.5%; maintenance; 1.5%), a catheter was placed in the tail vein and the animals were positioned in the micro-SPECT camera (MiLabs, Utrecht, The Netherlands).\nU-SPECT-II reconstruction software version 2.38 (MiLabs, Utrecht, The Netherlands) was used to reconstruct images. ^99mTc and ^111In images were reconstructed by selecting the photopeak (PP) and background (BG) windows as indicated in Figure 1.\nTo allow quantification of radiotracer uptake in vivo, conversion factors (CFs) were determined for the 0.6-mm collimator system in a representative phantom (20 ml) for ^99mTc and/or ^111In. During the SPECT reconstruction, the total amount of counts was distributed over the different voxels, resulting in a counts/voxel expression for the average concentration of counts. Taking into account the voxel volume (Vv), the CFs are calculated using equation (a):a ConversionfactorMBq=ActivityconcentrationMBq/ml/SPECTcountspervoxel/Vvml\nas §2\nFor body weight, we assumed that 1 g of body weight equalled 1 ml."}},
  "note": "Bridge positions count the residues as written; N and C are the ends. Peptide text beside a SMILES is read from it. * marks the point of attachment. X1 = N[C@@H](CSC1CC(=O)N(CC2CCC(C(=O)*)CC2)C1=O)C(=O)NCCCC[C@@H](C(=O)O)N(CCN(CC(=O)O)CC(=O)O)CCN(CC(=O)O)CC(=O)O",
  "data": [
    {"smiles": "CC(=O)N[C@H]1CSSC[C@@H](C(=O)NCC(=O)NCC(=O)N[C@@H](CCCCNC(=O)C2CCC(CN3C(=O)CC(SC[C@H](N)C(=O)NCCCC[C@@H](C(=O)O)N(CCN(CC(=O)O)CC(=O)O)CCN(CC(=O)O)CC(=O)O)C3=O)CC2)C(N)=O)NC(=O)[C@H](CCCNC(=N)N)NC(=O)CNC(=O)[C@H](CC(N)=O)NC1=O", "note": "(stereo partly drawn) [^111In-DTPA-cNGR, metal not drawn] (Ac-CNGRCGGK(X1)-NH2; disulfide 1-5)", "values": [
      {"measurement": "urinary excretion (urine radioactivity)", "setting": "in vivo [1]; MI mice (n ≥ 5)", "result": "82.29 ± 4.87", "unit": "%ID"},
      {"measurement": "urinary excretion (urine radioactivity)", "setting": "in vivo [1]; healthy control mice (n ≥ 4)", "result": "92.5 ± 1.17", "unit": "%ID"},
      {"measurement": "tissue uptake at 2 h", "setting": "in vivo [1]; heart, apical region, uptake in the apical region of the heart, infarcted hearts, MI mice (n ≥ 5)", "result": "0.16 ± 0.0542", "unit": "%ID/g"},
      {"measurement": "tissue uptake at 2 h", "setting": "in vivo [1]; heart, apical region, uptake in the apical region of the heart, non-infarcted hearts, healthy control mice (n ≥ 4)", "result": "0.02 ± 0.005", "unit": "%ID/g"},
      {"measurement": "tissue uptake at 2 h", "setting": "in vivo [1]; kidney, kidney uptake, MI mice (n ≥ 5)", "result": "2.73 ± 0.42", "unit": "%ID/g"},
      {"measurement": "tissue uptake at 2 h", "setting": "in vivo [1]; kidney, kidney uptake, healthy control mice (n ≥ 4)", "result": "4.04 ± 0.41", "unit": "%ID/g"},
      {"measurement": "SUV", "setting": "[2]; explanted control (PBS) Matrigel plug, control (PBS) Matrigels", "result": 0.000222, "unit": "SUV"},
      {"measurement": "SUV", "setting": "[2]; explanted hFGF2-supplemented Matrigel plug, hFGF2-supplemented Matrigels", "result": 0.000824, "unit": "SUV"},
      {"measurement": "SUV", "setting": "in vivo [3]; AHA segment 5 (basal inferolateral), segment 5. Basal inferolateral, MI mice n = 7, 7 days after LAD ligation, in vivo SPECT", "result": "0.23 ± 0.03", "unit": "SUV"},
      {"measurement": "SUV", "setting": "in vivo [3]; AHA segment 5 (basal inferolateral), segment 5. Basal inferolateral, healthy control mice n = 5, in vivo SPECT", "result": "0.14 ± 0.04", "unit": "SUV"},
      {"measurement": "SUV", "setting": "in vivo [3]; segment 1 basal anterior, total radioactivity, healthy control mice n = 5, in vivo SPECT", "result": "0.16 ± 0.05", "unit": "SUV"},
      {"measurement": "SUV", "setting": "in vivo [3]; segment 1 basal anterior, total radioactivity, segment 1. Basal anterior, MI mice n = 7, 7 days after LAD ligation, in vivo SPECT", "result": "0.24 ± 0.04", "unit": "SUV"},
      {"measurement": "SUV", "setting": "in vivo [3]; segment 2 basal anteroseptal, total radioactivity, healthy control mice n = 5, in vivo SPECT", "result": "0.16 ± 0.05", "unit": "SUV"},
      {"measurement": "SUV", "setting": "in vivo [3]; segment 2 basal anteroseptal, total radioactivity, segment 2. Basal anteroseptal, MI mice n = 7, 7 days after LAD ligation, in vivo SPECT", "result": "0.21 ± 0.03", "unit": "SUV"},
      {"measurement": "SUV", "setting": "in vivo [3]; segment 3 basal inferoseptal, total radioactivity, healthy control mice n = 5, in vivo SPECT", "result": "0.13 ± 0.06", "unit": "SUV"},
      {"measurement": "SUV", "setting": "in vivo [3]; segment 3 basal inferoseptal, total radioactivity, segment 3. Basal inferoseptal, MI mice n = 7, 7 days after LAD ligation, in vivo SPECT", "result": "0.2 ± 0.02", "unit": "SUV"},
      {"measurement": "SUV", "setting": "in vivo [3]; segment 4 basal inferior, total radioactivity, healthy control mice n = 5, in vivo SPECT", "result": "0.15 ± 0.05", "unit": "SUV"},
      {"measurement": "SUV", "setting": "in vivo [3]; segment 4 basal inferior, total radioactivity, segment 4. Basal inferior, MI mice n = 7, 7 days after LAD ligation, in vivo SPECT", "result": "0.23 ± 0.03", "unit": "SUV"},
      {"measurement": "SUV", "setting": "in vivo [3]; segment 6 basal anterolateral, total radioactivity, healthy control mice n = 5, in vivo SPECT", "result": "0.18 ± 0.06", "unit": "SUV"},
      {"measurement": "SUV", "setting": "in vivo [3]; segment 6 basal anterolateral, total radioactivity, segment 6. Basal anterolateral, MI mice n = 7, 7 days after LAD ligation, in vivo SPECT", "result": "0.26 ± 0.04", "unit": "SUV"},
      {"measurement": "SUV", "setting": "in vivo [3]; segment 7 mid anterior, total radioactivity, healthy control mice n = 5, in vivo SPECT", "result": "0.15 ± 0.05", "unit": "SUV"},
      {"measurement": "SUV", "setting": "in vivo [3]; segment 7 mid anterior, total radioactivity, segment 7. Mid anterior, MI mice n = 7, 7 days after LAD ligation, in vivo SPECT", "result": "0.21 ± 0.02", "unit": "SUV"},
      {"measurement": "SUV", "setting": "in vivo [3]; segment 8 mid anteroseptal, total radioactivity, healthy control mice n = 5, in vivo SPECT", "result": "0.14 ± 0.06", "unit": "SUV"},
      {"measurement": "SUV", "setting": "in vivo [3]; segment 8 mid anteroseptal, total radioactivity, segment 8. Mid anteroseptal, MI mice n = 7, 7 days after LAD ligation, in vivo SPECT", "result": "0.2 ± 0.02", "unit": "SUV"},
      {"measurement": "SUV", "setting": "in vivo [3]; segment 9 mid inferoseptal, total radioactivity, healthy control mice n = 5, in vivo SPECT", "result": "0.12 ± 0.06", "unit": "SUV"},
      {"measurement": "SUV", "setting": "in vivo [3]; segment 9 mid inferoseptal, total radioactivity, segment 9. Mid inferoseptal, MI mice n = 7, 7 days after LAD ligation, in vivo SPECT", "result": "0.18 ± 0.03", "unit": "SUV"},
      {"measurement": "SUV", "setting": "in vivo [3]; segment 10 mid inferior, total radioactivity, healthy control mice n = 5, in vivo SPECT", "result": "0.12 ± 0.05", "unit": "SUV"},
      {"measurement": "SUV", "setting": "in vivo [3]; segment 10 mid inferior, total radioactivity, segment 10. Mid inferior, MI mice n = 7, 7 days after LAD ligation, in vivo SPECT", "result": "0.17 ± 0.03", "unit": "SUV"},
      {"measurement": "SUV", "setting": "in vivo [3]; segment 11 mid inferolateral, total radioactivity, healthy control mice n = 5, in vivo SPECT", "result": "0.11 ± 0.04", "unit": "SUV"},
      {"measurement": "SUV", "setting": "in vivo [3]; segment 11 mid inferolateral, total radioactivity, segment 11. Mid inferolateral, MI mice n = 7, 7 days after LAD ligation, in vivo SPECT", "result": "0.2 ± 0.03", "unit": "SUV"},
      {"measurement": "SUV", "setting": "in vivo [3]; segment 12 mid anterolateral, total radioactivity, healthy control mice n = 5, in vivo SPECT", "result": "0.15 ± 0.05", "unit": "SUV"},
      {"measurement": "SUV", "setting": "in vivo [3]; segment 12 mid anterolateral, total radioactivity, segment 12. Mid anterolateral, MI mice n = 7, 7 days after LAD ligation, in vivo SPECT", "result": "0.24 ± 0.01", "unit": "SUV"},
      {"measurement": "SUV", "setting": "in vivo [3]; segment 13 apical anterior, total radioactivity, healthy control mice n = 5, in vivo SPECT", "result": "0.11 ± 0.03", "unit": "SUV"},
      {"measurement": "SUV", "setting": "in vivo [3]; segment 13 apical anterior, total radioactivity, segment 13. Apical anterior, MI mice n = 7, 7 days after LAD ligation, in vivo SPECT", "result": "0.21 ± 0.02", "unit": "SUV"},
      {"measurement": "SUV", "setting": "in vivo [3]; segment 14 apical septal, total radioactivity, healthy control mice n = 5, in vivo SPECT", "result": "0.12 ± 0.04", "unit": "SUV"},
      {"measurement": "SUV", "setting": "in vivo [3]; segment 14 apical septal, total radioactivity, segment 14. Apical septal, MI mice n = 7, 7 days after LAD ligation, in vivo SPECT", "result": "0.2 ± 0.03", "unit": "SUV"},
      {"measurement": "SUV", "setting": "in vivo [3]; segment 15 apical inferior, total radioactivity, healthy control mice n = 5, in vivo SPECT", "result": "0.1 ± 0.03", "unit": "SUV"},
      {"measurement": "SUV", "setting": "in vivo [3]; segment 15 apical inferior, total radioactivity, segment 15. Apical inferior, MI mice n = 7, 7 days after LAD ligation, in vivo SPECT", "result": "0.18 ± 0.03", "unit": "SUV"},
      {"measurement": "SUV", "setting": "in vivo [3]; segment 16 apical lateral, total radioactivity, healthy control mice n = 5, in vivo SPECT", "result": "0.14 ± 0.04", "unit": "SUV"},
      {"measurement": "SUV", "setting": "in vivo [3]; segment 16 apical lateral, total radioactivity, segment 16. Apical lateral, MI mice n = 7, 7 days after LAD ligation, in vivo SPECT", "result": "0.22 ± 0.02", "unit": "SUV"},
      {"measurement": "SUV", "setting": "in vivo [3]; segment 17 apex, total radioactivity, healthy control mice n = 5, in vivo SPECT", "result": "0.1 ± 0.03", "unit": "SUV"},
      {"measurement": "SUV", "setting": "in vivo [3]; segment 17 apex, total radioactivity, segment 17. Apex, MI mice n = 7, 7 days after LAD ligation, in vivo SPECT", "result": "0.2 ± 0.03", "unit": "SUV"}
    ]}
  ]
}
